The chains are these.
B1: PRT-661 (protein)
chain: MQITSVWTKGVTPLTPEQFRYNNEDVIHAPYLANQGWYDITKTFDGKDNLLCGAATAGNMLHWWFDQNKTEIEAYLSKHPEKQKIIFNNQELFDLKKAIDTKDSQTNSQLFNYFRDKAFPNLSARQLGVMPDLVLDMFINGYYLNVFKTQSTDVNRPYQDKDKRGGIFDAVFTRGDQTTLLTARHDLKNKGLNDISTIIKQELTEGRALALSHTYANVSISHVINLWGADFNAEGNLEAIYVTDSDSNASIGMKKYFVGINAAGHVAISAKKIEGENIGAQVLGLFTLSSGKDIWQKLSLEHHHHHH
B2: PRT-621 (protein)
chain: MQITSVWTKGVTPLTPEQFRYNNEDVIHAPYLAHQGWYDITKAFDGKDNLLCGAATAGNMLHWWFDQNKTEIEAYLSKHPEKQKIIFNNQELFDLKAAIDTKDSQTNSQLFNYFRDKAFPNLSARQLGVMPDLVLDMFINGYYLNVFKTQSTDVNRPYQDKDKRGGIFDAVFTRGDQTTLLTARHDLKNKTLNEISQIIKQELSSGRALALSHTYANVSISHVINLWGADFNAEGNLEAIYVTDSDANASIGMKKYFVGINAHGHVAISAKKIEGENIGAQVLGLFTLSSGKDIWQKLSLEHHHHHH
B3: PRT-686 (protein)
chain: MQITSVWTKGVTPLTPEQFTYNNEDVIHAPYIANQGWYDITKTFNGKDNLLCGAATAGNMLHWWFDQNKTEIENYLKKHPEKQKIIFNNQELFDLRKAINTKDSQTNSALFNYFRDKAFPNLSARQLGVMPDLVLDMFINGYYLNVFKTQSTDVNRPYQTKDKRGGIFDHVFTRGDQSTLLTARHDLKNKTLNEISDIIKQELTEGKALALSHTYANVSISHVINLWGADFNAEGNLEAIYVTDSDANASIGMKKYFVGVNSHGKVAISAKKIEDENIGAQVLGLFTLSSGQDIWEQLSLEHHHHHH
B4: PRT-696 (protein)
chain: MTITSVWTKGVTPPTPEDFRYNNEDVLHAPYVPNQGWYDITKTFDGGDNLLCGAATAGNMLHWWFDQNKEEIERYLKKYPEKQKIIFNNQELFDVRAAINSKDSQTNSKLFNYFRDKAFPNLSARQLGVMPDLVLDMFINGYYLNLGKTQSTDVNRPYQDPDKRGGIFDDVFKEGDQTTLLTARHDLKNGGLNEISDLIKQELQSGKALALSHTYANVRINHVINLWGADFDAEGNLIAIYVTDSDANQSIGMKKYKVGVNANGKVAISAKKIEGDNIGAQVLGLFTLSTGQEIWQKLSLEHHHHHH
B5: PRT-692 (protein)
chain: MQITSVWTKGVTPPTPEQFRYNNEDVIHAPYLPNQGWYDITKTFNGGDNLLCGAATAGNMLHWWFDQNKTEIEAYLSKYPEKQKIIFNNQELFDLRAAINSKDSQTNSQLFNYFRDKAFPNLSARQLGVMPDLVLDMFINGYYLNVFKTQSTDVNRPYQDPDKRGGIFDDVFKEGDQTTLLTARHDLKNGTLNDISTLIKQELQSGKALALSHTYANVSISHVINLWGADFNAEGNLEAIYVTDSDANQSIGMKKYKVGVNAHGKVAISAKKIEGENIGAQVLGLFTLSSGKEIWQKLSLEHHHHHH
B6: PRT-549 (protein)
chain: MANQEIRYSEDTPSHITSVWTKGVTPPTQFIQNEDVLHAPYIANQGWYDITKTFNGKDDLLCGAATAGNMLHWWFDQNKEQIEAYLKKYPEKQKINFNGEQMFDVKEAIDTKDSQTDSALFNYFKDKAFPYLSTKHLGVFPDHVIDMFINGYRLSLTNHGPTPVKNQTKDPRGGIFDAVFTRGDQSKLLTARHDFKEKTLKEISQLIKQELTEGKALGLSHTYANVRINHVINLWGADFNAEGNLEAIYVTDSDSNASIGMKKYYVGVNAAGKVAISAKEIEGDNIGAQVLGLFTLSTGQDIWQQTNLEHHHHHH
B7: PRT-623 (protein)
chain: MQITTVWTKGVTPLTPEQFRYNNEDVIHAPYLAHQGWYDITKAFDGKDNLLCGAATAGNMLHWWFDQNKTEIEAYLSKHPEKQKIIFNNQELFDLKAAIDTKDSQTNSQLFNYFRDKAFPNLSARQLGVMPDLVLDMFINGYYLNVFKTQSTDVNRPYQDKDKRGGIFDAVFTRGDQTTLLTARHDLKNGTLNEISQIIKQELQSGRALALSHTYANVSISHVINLWGADFNAEGNLIAIYVTDSDANASIGMKKYFVGINAHGHVAISAKKIEGENIGAQVLGLFTLSSGKDIWQKLSLEHHHHHH
B8: PRT-609 (protein)
chain: MQITSVWTKGVTPLTPEQFRYNNEDVIHAPYLAHQGWYDITKAFDRGDNLLCGAATAGNMLHWWFDQNKTEIEAYLSKHPEKQKIIFNNQELFDLKAAIDTKDSQTNSQLFNYFRDKAFPNLSARQGGVMPDLVLDMFINGYYLNVFKTQSTDVNRPYQDKDKRGGIFDAVFTRGDQTTLLTARHDLKNKGLNDISTIIKQELTEGRALALSHTYANVSISHVINLWGADFNAEGNLEAIYVTDSDADEKIGMKKYFVGINAHGHVAISAKKIEGENIGAQVLGLFTLSSGKDIWQKLSLEHHHHHH
B9: PRT-644 (protein)
chain: MQITSVWTKGVTPLTPEQFRYNNEDVIHAPYLAHQGWYDITKAFDGKDNLLCGAATAGNMLHWWFDQNKTEIEAYLSKHPEKQKIIFNNQELFDLKAAIDTKDSQTNSQLFNYFRDKAFPNLSARQLGVMPDLVLDMFINGYYLNVFKTQSTDVNRPYQDKDKRGGIFDAVFTRGDQTTLLTARHDLKNKGLNDISTIIKQELTEGRALALSHTYANVSISHVINLWGADFNAEGNLEAIYVTDSDANASIGMKKYYVGKNASGHVAISAKKIEDENIGAQVLGLFTLSSGKDIWQKLSLEHHHHHH
B10: PRT-650 (protein)
chain: MQITSVWTKGVTPLTPEQFRYNNEDVIHAPYLAHQGWYDITKAFDGKDNLLCGAATAGNMLHWWFDQNKTEIEAYLSKHPEKQKIIFNNQKLFDLKAAIDTKDSQTNSQLFNYFRDKAFPNLSARQLGVMPDLVLDMFINGYYLNVTKTQSTDVNRPYQTKDPRGGIFDAVFTRGDQTTLLTARHDLKNKGLNDISTIIKQELTEGRALALSHTYANVSISHVINLWGADFNAEGNLEAIYVTDSDANASIGMKKYFVGINAHGHVAISAKKIEGENIGAQVLGLFTLSSGKDIWQKLSLEHHHHHH
B11: PRT-637 (protein)
chain: MQITSVWTKGVTPLTPEQFRYNNEDVIHAPYLAHQGWYDITKAFDGGDGLLCGAATAGNMLHWWFDQNKTEIEAYLSKHPEKQKIIFNNQELFDLKAAIDTKDSQTNSQLFNYFRDKAFPNLSARQKGVMPDLVLDMFINGYYLNVFKTQSTDVNRPYQDKDKRGGIFDAVFTRGDQTTLLTARHDLKNKGLNDISTIIKQELTEGRALALSHTYANVSISHVINLWGADFNAEGNLEAIYVTDSDAGNGIGMKKYFVGINAHGHVAISAKKIEGENIGAQVLGLFTLSSGKDIWQKLSLEHHHHHH
B12: PRT-647 (protein)
chain: MQITSVWTKGVTPLTPEQFRYNNEDVIHAPYLAHQGWYDITKAFDGKDNLLCGAATAGNMLHWWFDQNKTEIEAYLSKHPEKQKIIFNNQELFDLKAAIDTKDSQTNSQLFNYFRDKAFPNLSARQLGVMPDLVLDMFINGYYLNVFKTQSTDVNRPYQDKDKRGGIFDAVFTRGDQTTLLTNRYDLYDKGLNDISTIIKQELTEGRALALSHTYANVSISHVINLWGADFNAEGNLEAIYVTDSDANASIGMKKYFVGINAHGHVAISAKKIEGENIGAQVLGLFTLSSGKDIWQKLSLEHHHHHH
B13: PRT-625 (protein)
chain: MQITSVWTKGVTPLTPEQFRYNNEDVIHAPYLAHQGWYDITKAFDGKDNLLCGAATAGNMLHWWFDQNKTEIEAYLSKHPEKQKIIFNNQELFDLKAAIDTKDSQTNSQLFNYFRDKAFPNLSARQLGVMPDLVLDMFINGYYLNVFKTQSTDVNRPEDDKDKRGGIFDHVFTRGDQSTLLTARHDLKNKGLNDISTIIKQELTEGRALALSHTYANVSISHVINLWGADFNAEGNLEAIYVTDSDANASIGMKKYFVGINAHGHVAISAKKIEGENIGAQVLGLFTLSSGKDIWQKLSLEHHHHHH

The target in the data set is pooled human IgG (human IgG1, 2, 3 and 4).
Consider B1, for which the Enzyme Activity Endpoint Assay (purified): Fab′2 was found to be 187 ng/µL, the Enzyme Activity Endpoint Assay (purified): Fc stood at 121 ng/µL, the Enzyme Activity Endpoint Assay (purified): IgG was 0 ng/µL and the Enzyme Activity Endpoint Assay (purified): scIgG came to 70 ng/µL.

B2 came in with an Enzyme Activity Endpoint Assay (purified): Fab′2 of 976 ng/µL, an Enzyme Activity Endpoint Assay (purified): Fc of 514 ng/µL, an Enzyme Activity Endpoint Assay (purified): IgG of 0 ng/µL and an Enzyme Activity Endpoint Assay (purified): scIgG of 0 ng/µL.

In the case of B3, the Enzyme Activity Endpoint Assay (purified): Fab′2 amounted to 608 ng/µL, the Enzyme Activity Endpoint Assay (purified): Fc worked out at 355 ng/µL, the Enzyme Activity Endpoint Assay (purified): IgG was 0 ng/µL and the Enzyme Activity Endpoint Assay (purified): scIgG came out at 252 ng/µL.

Consider B4, for which the Enzyme Activity Endpoint Assay (purified): Fab′2 turned out to be 58 ng/µL, the Enzyme Activity Endpoint Assay (purified): Fc amounted to 0 ng/µL, the Enzyme Activity Endpoint Assay (purified): IgG is 1020 ng/µL and the Enzyme Activity Endpoint Assay (purified): scIgG was 19 ng/µL.

In the case of B5, the Enzyme Activity Endpoint Assay (purified): Fab′2 was 442 ng/µL, the Enzyme Activity Endpoint Assay (purified): Fc was 44 ng/µL, the Enzyme Activity Endpoint Assay (purified): IgG was 429 ng/µL and the Enzyme Activity Endpoint Assay (purified): scIgG came to 38 ng/µL.

As for B6, the Enzyme Activity Endpoint Assay (purified): Fab′2 amounted to 725 ng/µL, the Enzyme Activity Endpoint Assay (purified): Fc is 491 ng/µL, the Enzyme Activity Endpoint Assay (purified): IgG is 0 ng/µL and the Enzyme Activity Endpoint Assay (purified): scIgG is 279 ng/µL.

With B7, the Enzyme Activity Endpoint Assay (purified): Fab′2 worked out at 433 ng/µL, the Enzyme Activity Endpoint Assay (purified): Fc was 260 ng/µL, the Enzyme Activity Endpoint Assay (purified): IgG came to 0 ng/µL and the Enzyme Activity Endpoint Assay (purified): scIgG came out at 157 ng/µL.

Take B8: the Enzyme Activity Endpoint Assay (purified): Fab′2 turned out to be 460 ng/µL, the Enzyme Activity Endpoint Assay (purified): Fc was 216 ng/µL, the Enzyme Activity Endpoint Assay (purified): IgG turned out to be 702 ng/µL and the Enzyme Activity Endpoint Assay (purified): scIgG was 726 ng/µL.

Regarding B9, the Enzyme Activity Endpoint Assay (purified): Fab′2 came to 882 ng/µL, the Enzyme Activity Endpoint Assay (purified): Fc was found to be 518 ng/µL, the Enzyme Activity Endpoint Assay (purified): IgG turned out to be 0 ng/µL and the Enzyme Activity Endpoint Assay (purified): scIgG stood at 355 ng/µL.

In turn, B10 gave an Enzyme Activity Endpoint Assay (purified): Fab′2 of 522 ng/µL, an Enzyme Activity Endpoint Assay (purified): Fc of 452 ng/µL, an Enzyme Activity Endpoint Assay (purified): IgG of 130 ng/µL and an Enzyme Activity Endpoint Assay (purified): scIgG of 600 ng/µL.

Take B11: the Enzyme Activity Endpoint Assay (purified): Fab′2 came to 278 ng/µL, the Enzyme Activity Endpoint Assay (purified): Fc amounted to 188 ng/µL, the Enzyme Activity Endpoint Assay (purified): IgG stood at 464 ng/µL and the Enzyme Activity Endpoint Assay (purified): scIgG was determined as 602 ng/µL.

Consider B12, for which the Enzyme Activity Endpoint Assay (purified): Fab′2 came out at 777 ng/µL, the Enzyme Activity Endpoint Assay (purified): Fc is 465 ng/µL, the Enzyme Activity Endpoint Assay (purified): IgG came to 0 ng/µL and the Enzyme Activity Endpoint Assay (purified): scIgG worked out at 330 ng/µL.

As to B13, the Enzyme Activity Endpoint Assay (purified): Fab′2 came to 451 ng/µL, the Enzyme Activity Endpoint Assay (purified): Fc was 405 ng/µL, the Enzyme Activity Endpoint Assay (purified): IgG turned out to be 78 ng/µL and the Enzyme Activity Endpoint Assay (purified): scIgG was determined as 531 ng/µL.

Source of the values: patent US20250027068.
